Experimental data from US7098025B1, “Human peroxisome proliferator activated receptor gamma (pparγ) gene regulatory sequences and uses therefor” (Ligand Pharmaceuticals Incorporated, priority 1997, dated 2006).
Blank lines part the entries; values can stand above or below the molecule they belong to.

How the values were obtained:
PPARγ = target: T1, PPARγ (Oryctolagus cuniculus, UniProt O19052); test: J3-TK-LUC PPRE-driven luciferase reporter in RK-13 cells; format: cell-based, rabbit
T1 construct: endogenous in cells; host or cells: RK-13 (rabbit kidney, ATCC)
T1 sequence (O19052 1-475): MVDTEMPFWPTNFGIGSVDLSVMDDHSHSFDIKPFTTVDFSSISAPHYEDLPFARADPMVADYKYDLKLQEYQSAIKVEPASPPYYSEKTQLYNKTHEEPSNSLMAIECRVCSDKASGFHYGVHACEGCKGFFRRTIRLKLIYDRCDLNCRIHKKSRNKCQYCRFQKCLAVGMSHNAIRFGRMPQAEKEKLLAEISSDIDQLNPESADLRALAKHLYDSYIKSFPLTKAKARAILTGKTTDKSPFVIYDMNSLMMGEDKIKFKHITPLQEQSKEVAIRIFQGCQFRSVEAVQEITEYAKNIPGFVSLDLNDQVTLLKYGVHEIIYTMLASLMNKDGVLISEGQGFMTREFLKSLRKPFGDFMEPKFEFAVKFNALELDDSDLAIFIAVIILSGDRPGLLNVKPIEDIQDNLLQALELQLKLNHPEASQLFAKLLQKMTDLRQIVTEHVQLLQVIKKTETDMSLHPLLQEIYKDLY
Protocol: Next we wanted to assess whether the above-mentioned changes in PPARγ expression were associated with changes in the capabilities of PPARγ to transactivate. A PPRE-driven luciferase reporter gene, containing three copies of the apo A-II J site (Vu-Dac et al., 1995), ie. J3-TK-LUC, was transfected into rabbit kidney-derived RK-13 cells and half of the cells were maintained in cholesterol-depleted medium whereas the other half was grown in the same medium supplemented with a mixture of cholesterol and 25-hydroxycholesterol.
Site-directed mutagenesis of the E-box in the PPARγ3 promoter was performed by splicing overlapping ends polymerase chain reaction (Ho, et al., Gene 77:51–59 (1989)), using the oligo pairs LF-106/LF-60 and LF-107/LF-68, to generate the plasmid pGL3γ3p800-E-boxmut. This changed the three bases underlined in the sequence 5′-[…]-3′ to 5′-[…]-3′ (SEQ ID NOS: 41 and 42, respectively. The J3-TK-LUC (Vu-Dac et al., 1995) and ACO-TK-LUC (Osumi et al., Biophys. Res. Commun. 175:866–871 (1991)) luciferase reporter vectors and the expression vectors encoding for ADD-1, a dominant negative form of ADD-1, and SREBP-1a (Tontonoz et al., Mol. Cell. Biol. 13:4753–4759 (1993)); Yokoyama et al., Cell 75:187–197 (1993)) were described before. […]

ADD-1 = target: T2, ADD-1 (UniProt P56720-1 P56720-1:1-1110); test: cell_activity; pGL3gamma3p800 luciferase reporter, Hep G2; settings: tags: expression vector, Hep G2 cells
T2 sequence: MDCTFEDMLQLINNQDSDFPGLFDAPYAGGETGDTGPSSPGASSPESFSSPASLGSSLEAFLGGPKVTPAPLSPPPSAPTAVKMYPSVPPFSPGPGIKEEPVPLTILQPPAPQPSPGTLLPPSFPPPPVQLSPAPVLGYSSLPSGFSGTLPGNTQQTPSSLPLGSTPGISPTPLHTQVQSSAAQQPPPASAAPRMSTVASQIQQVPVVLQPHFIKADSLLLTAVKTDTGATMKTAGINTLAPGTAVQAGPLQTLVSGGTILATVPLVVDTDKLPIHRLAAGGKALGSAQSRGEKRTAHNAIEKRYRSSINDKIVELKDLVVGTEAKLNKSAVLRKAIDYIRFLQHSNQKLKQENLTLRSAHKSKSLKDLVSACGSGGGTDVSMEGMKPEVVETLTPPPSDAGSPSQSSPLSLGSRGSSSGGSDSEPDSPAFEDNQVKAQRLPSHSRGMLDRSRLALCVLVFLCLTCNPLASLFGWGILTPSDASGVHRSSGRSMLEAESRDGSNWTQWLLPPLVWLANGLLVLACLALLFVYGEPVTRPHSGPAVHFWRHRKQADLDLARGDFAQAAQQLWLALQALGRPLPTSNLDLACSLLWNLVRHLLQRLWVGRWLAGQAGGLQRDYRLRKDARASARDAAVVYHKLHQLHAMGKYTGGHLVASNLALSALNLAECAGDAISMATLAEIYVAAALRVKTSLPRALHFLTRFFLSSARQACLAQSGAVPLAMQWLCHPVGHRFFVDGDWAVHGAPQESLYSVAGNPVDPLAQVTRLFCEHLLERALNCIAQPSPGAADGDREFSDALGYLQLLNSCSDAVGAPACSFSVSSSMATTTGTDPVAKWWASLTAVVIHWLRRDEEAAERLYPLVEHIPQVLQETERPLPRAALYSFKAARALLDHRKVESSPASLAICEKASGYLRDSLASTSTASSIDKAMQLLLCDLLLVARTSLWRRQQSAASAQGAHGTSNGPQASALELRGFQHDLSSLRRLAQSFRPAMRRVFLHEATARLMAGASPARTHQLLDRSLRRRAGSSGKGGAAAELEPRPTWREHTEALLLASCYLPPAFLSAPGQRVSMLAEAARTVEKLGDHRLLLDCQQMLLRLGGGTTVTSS
From the text: To assess whether ADD-1 regulates the expression of the hPPARγ3 mRNA, we cotransfected either an expression plasmid coding for ADD-1 together with the pGL3γ3p800 luciferase reporter vector.

[1] = target: T3, hPPARγ2, in vitro transcribed/translated protein (human, UniProt P37231 1-505); test: EMSA with in vitro translated proteins on the apoA-II J site PPRE oligonucleotide; heterodimer complex on DNA
T3 construct: PPARγ2 isoform, with the additional N-terminal amino acids encoded by exon B; also called human PPARγ2
T3 sequence (looked up): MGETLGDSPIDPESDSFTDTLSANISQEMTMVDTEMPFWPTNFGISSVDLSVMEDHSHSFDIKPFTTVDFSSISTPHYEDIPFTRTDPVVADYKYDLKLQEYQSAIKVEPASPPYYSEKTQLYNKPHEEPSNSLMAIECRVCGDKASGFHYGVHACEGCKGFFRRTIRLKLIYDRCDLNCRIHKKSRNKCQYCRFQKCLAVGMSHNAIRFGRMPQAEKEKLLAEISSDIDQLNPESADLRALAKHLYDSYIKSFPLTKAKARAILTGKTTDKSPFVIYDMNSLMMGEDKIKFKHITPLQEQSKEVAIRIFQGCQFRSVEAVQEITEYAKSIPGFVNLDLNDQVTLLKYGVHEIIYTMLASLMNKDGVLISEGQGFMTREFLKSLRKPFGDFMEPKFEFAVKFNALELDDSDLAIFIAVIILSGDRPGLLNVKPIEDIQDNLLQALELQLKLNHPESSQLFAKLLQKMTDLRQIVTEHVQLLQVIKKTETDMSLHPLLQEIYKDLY
Protocol: To analyze whether PPARγ could bind to a PPRE, classically composed of direct repeats spaced by one intervening nucleotide (DR-1), EMSA was performed using in vitro transcribed/translated PPARγ2 protein. An oligonucleotide containing a high affinity PPRE, previously identified in the apoA-II promoter J site, was used in EMSA (29).
7. Electrophoretic Mobility Shift Assays (EMSA) and Oligonucleotide Sequences haPPARγ (39), hPPARγ2, and mRXRα (40) proteins were synthesized in vitro in rabbit reticulocyte lysate (Promega). Molecular weights and quality of the in vitro translated proteins were verified by SDS-PAGE. PPAR (2 μl) and/or RXR (2 μl) were incubated for 15 min on ice in a total volume of 20 μl with 1-ng probe, 2.5 μg of poly(dI-dC) and 1 μg of herring sperm DNA in binding buffer (10 mM Tris-HCl pH 7.9, 40 mMKCl, 10% glycerol, 0.05% Nonidet P-40, and 1 mM dithiothreitol). For competition experiments, increasing amounts (from 10- to 200-fold molar excess) of cold oligonucleotide (AII-J-PPRE, 5'-[…]-3' (41) SEQ ID NO: 24; acyl-CoA oxidase (ACO)-PPRE, 5'-[…]-3' (42) SEQ ID NO: 25; or LPL-PPRE, 5'-[…]-3 (23) SEQ ID NO: 26; were included just before adding T4-PNK end-labeled AII-J-PPRE oligonucleotide. DNA-protein complexes were separated by electrophoresis on a 4% polyacrylamide gel in 0.25×TBE buffer at 4° C. (43).

PPARγ mRNA = test: RNase protection assay of PPARγ mRNA in retrovirally infected 3T3-L1 cells; format: cell-based, mouse; settings: 3T3-L1 preadipocytes and adipocytes; retroviral ectopic expression
Protocol: To study the effects of ADD-1 on PPARγ expression in more detail, either an empty retroviral vector pBabe or the same vector encoding for full length ADD-1 or the superactive ADD-1-403 form were introduced into 3T3-L1 cells via retroviral infection. […] Infected cells were then cultured to confluence and consecutively treated with differentiation medium. Total RNA was isolated at confluence (preadipocytes) and at day 6 after confluence (adipocytes) from the cells expressing either the empty pBabe vector or the same vector encoding for ADD-1 or ADD-1-403, a truncated form of ADD-1, equivalent to the proteolytically activated protein, which lacks the membrane anchoring domain. […] The effect of retroviral infection was more pronounced in 3T3-L1 adipocytes relative to preadipocytes.
Control cells received vehicle only.
The absolute mRNA concentration of the differentially spliced PPARγ variants was measured by RNase protection assay exactly as described (Lemberger et al., J. Biol. Chem. 271:1764–1769 (1995)). The full lenght PPARγ2 coding region plus 33 bp of the 5′ UTR was amplified from human adipose tissue RNA by RT-PCR with the primer pair LF-3/LF-36 and was inserted in the inverted orientation (3′ to 5′ in front of the T7 promoter) into the EcoRI site of the expression vector pSG5 (Stratagene, La Jolla, Calif.). […]

promoter activity of J3-TK-LUC reporter (PPARγ; increasing amounts of ligand, cholesterol-depleted or supplemented medium): dose-dependent activation
Molecule: CN(CCOc1ccc(CC2SC(=O)NC2=O)cc1)c1ccccn1 (centres unmarked) [BRL 49,653]
J3-TK-LUC reporter activation under cholesterol depletion versus supplemented medium (PPARγ; cholesterol-depleted medium): activated to a significantly higher level

B1: PPARgamma3 E-box (LF-102; core printed) (dsDNA)
DNA 1: ATTCATGTGACAT
DNA 2: ATGTCACATGAAT
activity (ADD-1): ≥ 4 fold

binding result [1]: binds
B2: mRXRα, in vitro translated protein (receptor, mouse, UniProt P28700 1-467, looked up)
chain: MDTKHFLPLDFSTQVNSSSLNSPTGRGSMAVPSLHPSLGPGIGSPLGSPGQLHSPISTLSSPINGMGPPFSVISSPMGPHSMSVPTTPTLGFGTGSPQLNSPMNPVSSTEDIKPPLGLNGVLKVPAHPSGNMASFTKHICAICGDRSSGKHYGVYSCEGCKGFFKRTVRKDLTYTCRDNKDCLIDKRQRNRCQYCRYQKCLAMGMKREAVQEERQRGKDRNENEVESTSSANEDMPVEKILEAELAVEPKTETYVEANMGLNPSSPNDPVTNICQAADKQLFTLVEWAKRIPHFSELPLDDQVILLRAGWNELLIASFSHRSIAVKDGILLATGLHVHRNSAHSAGVGAIFDRVLTELVSKMRDMQMDKTELGCLRAIVLFNPDSKGLSNPAEVEALREKVYASLEAYCKHKYPEQPGRFAKLLLRLPALRSIGLKCLEHLFFFKLIGDTPIDTFLMEMLEAPHQAT
notes: also called mouse retinoid X receptor alpha

B3: ADD-1-403: truncated superactive form of ADD-1 lacking the membrane anchoring domain, equivalent to the proteolytically activated protein (protein, UniProt P56720 1-403, looked up, fragment)
chain: MDELPFGEAALEQALAEVCEMDAALLTDIEDMLQLINNQDSDFPGLFDAPYAGGETGDTGPSSPGASSPESFSSPASLGSSLEAFLGGPKVTPAPLSPPPSAPTAVKMYPSVPPFSPGPGIKEEPVPLTILQPPAPQPSPGTLLPPSFPPPPVQLSPAPVLGYSSLPSGFSGTLPGNTQQTPSSLPLGSTPGISPTPLHTQVQSSAAQQPPPASAAPRMSTVASQIQQVPVVLQPHFIKADSLLLTAVKTDTGATMKTAGINTLAPGTAVQAGPLQTLVSGGTILATVPLVVDTDKLPIHRLAAGGKALGSAQSRGEKRTAHNAIEKRYRSSINDKIVELKDLVVGTEAKLNKSAVLRKAIDYIRFLQHSNQKLKQENLTLRSAHKSKSLKDLVSACGSGGGT
expression of PPARγ mRNA (PPARγ mRNA): significantly more active
